Residue numbers refer to the chain shown, from its start.
T1: XtrLin28b CSD (Xenopus tropicalis, UniProt B4F6I0 27-114)
T1 sequence: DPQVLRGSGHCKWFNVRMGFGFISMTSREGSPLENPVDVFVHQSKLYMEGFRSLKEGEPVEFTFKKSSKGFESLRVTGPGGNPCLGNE

T2: XtrLin28b ZKD Y133A (Xenopus tropicalis, UniProt B4F6I0 125-175, Y133A)
T2 sequence: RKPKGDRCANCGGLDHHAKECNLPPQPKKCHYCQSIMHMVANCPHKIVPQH

T3: XtrLin28b ZKD H155A (Xenopus tropicalis, UniProt B4F6I0 125-175, H155A)
T3 sequence: T2 sequence with A9Y, H31A

T4: XtrLin28b CSD W39A (Xenopus tropicalis, UniProt B4F6I0 27-114, W39A)
T4 sequence: T1 sequence with W13A

T5: XtrLin28b CSD F48A (Xenopus tropicalis, UniProt B4F6I0 27-114, F48A)
T5 sequence: T1 sequence with F22A

T6: XtrLin28b CSD H68A (Xenopus tropicalis, UniProt B4F6I0 27-114, H68A)
T6 sequence: T1 sequence with H42A

T7: XtrLin28b CSD F66A (Xenopus tropicalis, UniProt B4F6I0 27-114, F66A)
T7 sequence: T1 sequence with F40A

T8: XtrLin28b CSD F77A (Xenopus tropicalis, UniProt B4F6I0 27-114, F77A)
T8 sequence: T1 sequence with F51A

T9: XtrLin28b ZKD (Xenopus tropicalis, UniProt B4F6I0 125-175)
T9 sequence: T2 sequence with A9Y

B1: rU7 (ssRNA)
RNA: UUUUUUU
B2: rG1 (ssRNA)
RNA: GUUUUUU
B3: rG1b (ssRNA)
RNA: GUCUUUU
B4: rlet-7f (rlet-7f0) (ssRNA)
RNA: GUCACAC
B5: rlet-7f1 (ssRNA)
RNA: GUCAUAC
B6: rlet-7f2 (ssRNA)
RNA: GUCAAAC
B7: rlet-7f3 (ssRNA)
RNA: GACAAAC
B8: rlet-7f4 (ssRNA)
RNA: GGUCACAC
B9: rlet-7f5 (ssRNA)
RNA: GUCACACC
B10: rlet-7f6 (ssRNA)
RNA: GGUCACACC
B11: rGA6 (ssRNA)
RNA: GAAAAAA
B12: rZ1 (ssRNA)
RNA: AAGGAGAA
B13: rZ2 (ssRNA)
RNA: AAGGUGAA
B14: rZ3 (ssRNA)
RNA: AAAGAGAA
B15: rZ4 (ssRNA)
RNA: AAGAAGAA
B16: rZ7 (ssRNA)
RNA: AAAGAAAA
B17: rZ6 (ssRNA)
RNA: AAGGAAAA
B18: rZ8 (ssRNA)
RNA: AAGGGGAA
B19: rA8 (ssRNA)
RNA: AAAAAAAA
B20: dT7 (ssDNA)
DNA: TTTTTTT
B21: dT8 (ssDNA)
DNA: TTTTTTTT
B22: dT9 (ssDNA)
DNA: TTTTTTTTT
B23: dA1 (ssDNA)
DNA: ATTTTTT
B24: dA2 (ssDNA)
DNA: TATTTTT
B25: dA3 (ssDNA)
DNA: TTATTTT
B26: dA4 (ssDNA)
DNA: TTTATTT
B27: dA5 (ssDNA)
DNA: TTTTATT
B28: dA6 (ssDNA)
DNA: TTTTTAT
B29: dA7 (position 7) (ssDNA)
DNA: TTTTTTA
B30: dG1 (ssDNA)
DNA: GTTTTTT
B31: dG2 (ssDNA)
DNA: TGTTTTT
B32: dG3 (ssDNA)
DNA: TTGTTTT
B33: dG4 (ssDNA)
DNA: TTTGTTT
B34: dG5 (ssDNA)
DNA: TTTTGTT
B35: dG6 (ssDNA)
DNA: TTTTTGT
B36: dG7 (position 7) (ssDNA)
DNA: TTTTTTG
B37: dC1 (ssDNA)
DNA: CTTTTTT
B38: dC2 (ssDNA)
DNA: TCTTTTT
B39: dC3 (ssDNA)
DNA: TTCTTTT
B40: dC4 (ssDNA)
DNA: TTTCTTT
B41: dC5 (ssDNA)
DNA: TTTTCTT
B42: dC6 (ssDNA)
DNA: TTTTTCT
B43: dC7 (ssDNA)
DNA: TTTTTTC
B44: dA7 (heptaadenosine) (ssDNA)
DNA: AAAAAAA
B45: dG7 (heptaguanosine) (ssDNA)
DNA: GGGGGGG
B46: dT5 (ssDNA)
DNA: TTTTT
B47: dT6 (ssDNA)
DNA: TTTTTT

Target: T1, XtrLin28b CSD
Experiment: ITC

Binder | Kd [nM] | binding result
B1 | 530 ± 65 | –
B2 | 35 ± 2 | –
B3 | 27 ± 3 | –
B4 | 46 ± 3 | –
B5 | 13 ± 2 | –
B6 | 54 ± 9 | –
B7 | 1360 ± 600 | –
B8 | 66 ± 9 | –
B9 | 18 ± 2 | –
B10 | 21 ± 4 | –
B11 | – | no binding

Target: T2, XtrLin28b ZKD Y133A
Experiment: ITC

Binder | Kd [nM]
B12 | 2200 ± 700

Target: T3, XtrLin28b ZKD H155A
Experiment: ITC

Binder | Kd [nM]
B12 | 2600 ± 600

Target: T4, XtrLin28b CSD W39A
Experiment: ITC

Binder | Kd [nM]
B9 | 1130 ± 110

Target: T5, XtrLin28b CSD F48A
Experiment: ITC

Binder | Kd [nM]
B9 | 1610 ± 340

Target: T6, XtrLin28b CSD H68A
Experiment: ITC

Binder | Kd [nM]
B9 | 540 ± 50

Target: T7, XtrLin28b CSD F66A
Experiment: ITC

Binder | Kd [nM]
B9 | 1440 ± 200

Target: T8, XtrLin28b CSD F77A
Experiment: ITC

Binder | Kd [nM]
B9 | 1180 ± 60

Target: T9, XtrLin28b ZKD
Experiment: ITC

Binder | Kd [nM] | binding result
B12 | 45 ± 4 | –
B13 | 32 ± 2 | –
B14 | 200 ± 30 | –
B15 | 600 ± 170 | –
B1 | – | no binding
B16 | 6800 ± 2100 | –
B17 | – | no binding
B18 | – | no binding
B19 | – | no binding

Target: T1, XtrLin28b CSD
Experiment: Trp fluorescence titration

Binder | Kd [nM] | binding result
B20 | 59 ± 5 | –
B21 | 32 ± 1 | –
B22 | 44 ± 3 | –
B23 | 84 ± 5 | –
B24 | 311 ± 24 | –
B25 | 137 ± 10 | –
B26 | 124 ± 12 | –
B27 | 176 ± 8 | –
B28 | 147 ± 15 | –
B29 | 113 ± 15 | –
B30 | 12 ± 1 | –
B31 | 39 ± 4 | –
B32 | 139 ± 8 | –
B33 | 119 ± 16 | –
B34 | 45 ± 4 | –
B35 | 81 ± 10 | –
B36 | 80 ± 10 | –
B37 | 45 ± 4 | –
B38 | 137 ± 22 | –
B39 | 71 ± 3 | –
B40 | 73 ± 6 | –
B41 | 154 ± 26 | –
B42 | 87 ± 14 | –
B43 | 59 ± 4 | –
B44 | – | no binding
B45 | – | no binding
B46 | 680 ± 40 | –
B47 | 169 ± 30 | –

From PMC3424542
